Here are results for three molecules from PMC6239170.

Data set [1] addresses IMP3 RRM12 (UniProt O00425 1-161). The experiment in a line: ITC. In general terms: In ITC the heat of successive injections is recorded.
Data set [2] deals with IMP3 RRM12 Y5A (UniProt O00425 1-161, Y5A). The experiment in a line: ITC.
Sequence of IMP3 RRM12 Y5A (O00425 1-161 Y5A): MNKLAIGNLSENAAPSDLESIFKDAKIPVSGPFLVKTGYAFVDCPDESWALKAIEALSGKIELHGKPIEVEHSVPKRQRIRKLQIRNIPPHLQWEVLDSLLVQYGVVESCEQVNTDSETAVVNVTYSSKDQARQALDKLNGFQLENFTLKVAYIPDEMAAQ

Sequence of IMP3 RRM12 (O00425 1-161): as the sequence (O00425 1-161 Y5A) above, with A5Y counted along it

Consider UUUU (ssRNA), for which the binding result in data set [1] is reported as “no binding”.
Turning to GGGG (ssRNA), the binding result in data set [1] was “no binding”.
In the case of ACAC (ssRNA), the binding result in data set [2] is on record as “no binding”.
